Laboratory results as given in the DeepSol protein solubility set.

assay: soluble on expression in E. coli; label from the status in PepcDB or PDB records

| Sequence | soluble on expression in E. coli |
| --- | --- |
| MSRGSGILPDESMFAEFKRQCLSTENWVNKYDKNDMEVWVEQAPLSASINNKGNYSKVHKIRCQINIKDVSAATMYDVLHDGQYRKTWDPTMLESFDIARLAHNADVGYYSWICPKPLKNRDVVTLRSWQASENEYVIINFSVKHPKYPPRKDLVRAVSLMTGYLIKPTGPQSCIFTYLSQADPKGSLPKWVVNKASQVLAPKVLRSAHKAGQNYPAWKAANSPDHKPWLYPIQSELAMMDPAELSIQRGDSLENVDESSTRDAQENEDSS | not soluble |
| MQSAIVLGGGMIGVSAALHLRQRGWTVTLVDRREPGRETSYGNAGMIQAEAVRPYPMPRDLASLLKIATGRTNDVRYSLSSLHLHIEPLLRYWWHSAPKRHREAIDAWARLIAYATAEHDILIREAHADNLIRRAGYRALYRDAAALDLSIKAAEEDQHEFGVNFRVLSGSELAKAEPVLRDDLPGAIHWLDTWTVSDPGALVTAYAELFERLGGRIVLGDAQSLQQTAAGWSVDTDQGRIDAATAVVTLGPWSPDLLYKFGYRIPLVRKRGYHMHYSGGASLDLPLIDKAGGYAMGPMAKGIRITTGAELTSPDALATPVQLASAEASARELIDLGKRVEPDPWFGTRPCTPDMLPVLGPAPLHPGLWMNFGHGHQGFTLGPATGRLLAEMMSGETPAIDPTPYRPERFLEHHHHHH | soluble |
| MGHHHHHHSHGYRSVRERTSTSGTHRDREDSKFRRTRPLECQDALETAARAEGLSLDASMHSQLRILDEEHPKGKYHHGLSALKPIRTTSKHQHPVDNAGLFSCMTFSWLSSLARVAHKKGELSMEDVWSLSKHESSDVNCRRLERLWQEELNEVGPDAASLRRVVWIFCRTRLILSIVCLMITQLAGFSGPPTDLRKEGMNLQTLRLRSSNKHQRFPGLPRAPVYQKLLERMKH | soluble |
| MPPPLPYDAMRSVWTDTAAPAMATAPLAGHADCDVAIVGAGITGLSAALHLAERGLRACVLEARDPGWGASGRNGGQVIPGIKHDPDEILARHGRERGEPLLHMVGTAADTVFDLIDRYGLDLVQAQIRLAAGERLDRVVPADLQPSGHAIELRVYAEDPVRFIPSPGTLAVFELPQGPGVRTETGYHAGNAVSPHYDPMIAKIIVHGADRAQAIARAEQALADTEIAGVKTNLPFLARALAFEPWRQGRLHTGIVARTLAEPAPAALTALEHHHHHH | not soluble |
| MGSDKIHHHHHHMKSILLFMIFVVCQLEGKKFSQDNFKVDYNYYLRKQDLHIIKTQNDLSNSWYLPPQKAPKEHSWVDFAKKYLNMMDYLGTYFLPFYHSFTPIFQWYHPNINPYQRNEFKFQISFRVPVFRHILWTKGTLYLAYTQTDWFQIYNDPQSAPMRMMNFMPELIYVYPINFKPFGGKIGNFSEIWIGWQHISNGVGGAQCYQPFNKEGNPENQFPGQPVIVKDYNGQKDVRWGGCRSVSAGQRPVFRLVWEKGGLKIMVAYWPYVPYDQSNPNLIDYMGYGNAKIDYRRGRHHFELQLYDIFTQYWRYDRWHGAFRLGYTYRINPFVGIYAQWFNGYGDGLYEYDVFSNRIGVGIRLNP | not soluble |
| MELAQEARELGCWAVEEMGVPVAARAPESTLRRLCLGQGADIWAYILQHVHSQRTVKKIRGNLLWYGHQDSPQVRRKLELEAAVTRLRAEIQELDQSLELMERDTEAQDTAMEQARQHTQDTQRRALLLRAQAGAMRRQQHTLRDPMQRLQNQLRRLQDMERKAKVDVTFGSLTSAALGLEPVVLRDVRTACTLRAQFLQNLLLPQAKRGSLPTPHDDHFGTSYQQWLSSVETLLTNHPPGHVLAALEHLAAEREAEIRSLCSGDGLGDTEISRRAGGLWVCWSPSGAPS | soluble |
| MEMKQISETTLKITISMDDLEERGMELKDFLIPQEKTEEFFYSVMDELDLPDNFKDSGMLSFRVTPRKDRLDVFVTKSEINKDINLEDLAEFGDMSQMTPEDFFKSLEQSMREKGDVKAHEKLEKIEEIMEDVVEATLANQSEAADPSTNHESEPLDYVHYVLDFSTITEAVAFAKTIDFSIEASELYKGSNCYHMTILLDVQQQPSYFANVMYARLIEHANPGSKTRAYLQEHGLQLMLDGAVEQLQKIELG | not soluble |
| GMAEKQYDFTHVPKRQGNSIKWGVLKEKELPMWIAEMDFKIAPEIMASMEEKLKVAAFGYESVPAEYYKAVADWEEIEHRARPKEDWCVFASGVVPAISAMVRQFTSPGDQILVQEPVYNMFYSVIEGNGRRVISSDLIYENSKYSVNWADLEEKLATPSVRMMVFCNPHNPIGYAWSEEEVKRIAELCAKHQVLLISDEIHGDLVLTDEDITPAFTVDWDAKNWVVSLISPSKTFNLAALHAACAIIPNPDLRARAEESFFLAGIGEPNLLAIPAAIAAYEEGHDWLRELKQVLRDNFAYAREFLAKEVPEVKVLDSNASYLAWVDISALGMNAEDFCKYLREKTGLIISAGNGYRGNGHEFVRINLACPKELVIDGMQRLKQGVLNLNN | soluble |
| MSHRSPSVTPAVSVLIPAWNAVRHLPAALDGLLSQTFQDWEAVVVDDGSQDETPALLAAYAARDARIRPLHVEHGGIVHALNHGLLHVRGRHVARMDADDTCHPERLALQCHALDNAPHLGLVASRVTFGGDAAQCGGFVRYVDWTNSLLCHEDIALGRFRESPLVHPSVMFRRELIDRFGPYANGPFPEDYELWLRWLEAGVRMEKLPEHLLVWNDPPGRLTRTHDNYAEAGFVALRTRYLARWLCAHNPQHPDVWVIGAGKASRRRARPLCEHGIRIRAWVDIDPHKIGNIVEGLPVVGREAMPAPGQGFMLAFLAGHGAAEELELFLHGAGYLPGQDYLLASLEHHHHHH | soluble |
| MELLLYSLDNEGPIRFIQITDTHLVEAADGHLLGLETQNSLEHVLSSVQSENDQFDFFVVSGDISQDGSLSSYQRLHESLAPFNVPSFWFPGNHDEMSNMKVVCQDTEHLVNIIRTPHWQLVLLNSQVEGAVFGNLGDDQFELLERALTERPDLHTLISLHHHPIPMESNWMDKIGVKNGDKLMAMARKYPKVKCILWGHVHQDSDRMVDGIRMLSTPSTCVQFMPKSKDFNIDMIAPGYRRLQLNPDGSIETEMSRVEGIEFEVDLSVKGY | soluble |
| MSLRILLVDDVQLDRMQLAIRLKQLGHIVKAVGSGIEALNTYESFDPELVLLDISMPEMNGFEVSLHVRETFPDWIPIIFLSSHEEPEMIAKAIDAGGDDYLIKPVDKLVLNSKLIAMQRIAHMRRELKQATAQLEQVNQLLTQQANEDGLTKLFNRRYIDQKLDSMVAWHGRHHMPMAMILLDVDFFKPFNDNYGHIEGDRCLQAIANQLKATFCRSGEYVGRYGGEEFVVLLSSTDAQTAEREAERIQEAMYFLDYQHEFSSVANRVTVSQGVFVFQPTGKENQADLYATADRALYTSKSLGRNTYTMVNASEGHHHHHH | soluble |
| MGHHHHHHSHQADEGQARKSQLQRRFKEFLRQYRVGTDRTGFTFKYRDELKRHYNLGEYWIEVEMEDLASFDEDLADYLYKQPAEHLQLLEEAAKEVADEVTRPRPSGEEVLQDIQVMLKSDASPSSIRSLKSDMMSHLVKIPGIIIAASAVRAKATRISIQCRSCRNTLTNIAMRPGLEGYALPRKCNTDQAGRPKCPLDPYFIMPDKCKCVDFQTLKLQELPDAVPHGEMPRHMQLYCDRYLCDKVVPGNRVTIMGIYSIKKFGLTTSRGRDRVGVGIRSSYIRVLGIQVDTDGSGR | not soluble |
| MTTPYCFNLAMRKSSRLITQFYEDRLSAVGLKSGQFSILKAVSFLKQTSNKELQGILVLDQTTLSRNLKPLFRDGYLKLSPDSNDARVKLISLTTQGQALYEKADPLWQKAQDDLEKKLGSEEVKNILTLADSFVKALAR | not soluble |
| MGKEKSHINVVVIGHVDSGKSTTTGHLIYKCGGIDKRTIEKFEKEAAELGKGSFKYAWVLDKLKAERERGITIDIALWKFETPKYQVTVIDAPGHRDFIKNMITGTSQADCAILIIAGGVGEFEAGISKDGQTREHALLAFTLGVRQLIVAVNKMDSVKWDESRFQEIVKETSNFIKKVGYNPKTVPFVPISGWNGDNMIEATTNAPWYKGWEKETKAGVVKGKTLLEAIDAIEQPSRPTDKPLRLPLQDVYKIGGIGTVPVGRVETGVIKPGMVVTFAPAGVTTEVKSVEMHHEQLEQGVPGDNVGFNVKNVSVKEIRRGNVCGDAKNDPPKGCASFNATVIVLNHPGQISAGYSPVLDCHTAHIACRFDELLEKNDRRSGKKLEDHPKFLKSGDAALVKFVPSKPMCVEAFSEYPPLGRFAVRDMRQTVAVGVIKSVDKTEKAAKVTKAAQKAAKK | soluble |
| IDGDSITNKQIKKFWRQKQIIEEDHLYSAIKAAARVRARNLSDEDYKRFEESLDMEDLETEDHQGLKDWWTKSKYAYLNQPALGSADSLKRKRFSTYTPNCFSFKPCNPLYATSLNVF | not soluble |
| MAHHHHHHMKNNEEWEKEKIYDRQLRLWGVKAQNRMMKSNVLILGLSGINIEICKNLILNGINITIIDDNIVDEEMVENIFFLNESDIQNYACVAIFKELKSINKMINMKAYIGRMDTSNDSIIIESELVQNADGEISNTKMGKTFSVEKYISNYTSVCVSCEDYPLYKLVKMNEFCHEKNIGFFAAMCNGKFAFLFSDFGNHVIEESYYKAKEGQRKGETGANKAGELQKEGETGANNGGIPIQYCTLSHFLKVPFENFDKKTNKIIFPMFALILFELNKQLNKSDKSIDEQEFSTFCDQFSLAKCKESLGEITKTYRVAFSPSCSIMGGVTSQEIRKFVSKQHESIPNFCVFDMNQSVVCTSMIS | not soluble |
| MKPSQWTLRWVTLCGCGMLAASAAAVELPGTVQPSQLDERFKPRSEPQAKPEAPLVVPKQVAPQGSEQIRFKLREIRIEGNTRYDKAVLESYYQHMLGEQVSLAELVDLANRLTAKYRQDGFLLTQVVVPEQSIEGGKVRLQVIEGYLEHVQIKGTVDGPRVRVEELLAPLTEKRPLDADTLERGLLLVGDLPGVNVQSVLSPGQALGSSNLDVALQQQRYEGFVSLDNRGSHYTDPTTLAFGATEFSRLGFYEQIDVLGAISPFSDATRYIQLRGTLPLGGMFAGDTLQIMGSYSKVNPDIPDSVFPFDSVSKSTEGSISYNHPFIRSRSQNLSGGLALQWKDTETRLRDFASDASNPGRDHVRVFQQRLTYDWVDRWMGINLAEVRNNIGLDMWGATKKDDERRSREVADGRFVYLNGNIGRLQGLGGPWSVYGELQWQYSFDPLLPSERFGVGGSGIGRGFAPGNITGDRGFALKLEPRYGQAVGYSWLRSYQAYAFYDWGKTYNLDVDDDEQQKLGSIGAGVRFNLTDQLSFNPEIARQVIGEPADQRDGKRETRVLFNVVARF | not soluble |
| GMAPDQQVPATALGKSSRISLDGRRSERSVILADGSMHSLTLLHPGVYTLSSEVAETIRVLSGMAYYHAEGANDVQELHAGDSMVIPANQSYRLEVMEPLDYLLSS | soluble |
| MSLTALSSVDFCLPEHITPEIFLRDYWQKKPLVIRNGLPEIVGQFEPQDIIELAQNEDVTARLVKTFSDDDWKVFFSPLSEKDFQKLPEKWSVLVQNLEQWSPELGQLWNKFGFIPQWQRDDIMVSYAPKGGSVGKHYDEYDVFLVQGYGHRRWQVGKWCDASTEFKPNQSIRIFDDMGELVIDEVMNPGDILYIPARMAHYGVAEDDCLTFSFGLRYPNLSNLIDGISKGFCHQDPDLNLSEFDLPLRLSQSEQRTGKLADENIQAMKQLLLDKLAHSEAFDTLFKQAVASAVSSRRYELLVSDEMCDPDEVRSILEEDGAFLSQDNNCKLLYTENPLRIYANGEWLDELNIIESEVLKRLSDGESLDWAFLSDLANKTEDPETSMDLLLDSICNWVDDGWALIEEGGSHHHHHH | soluble |
